Read-outs that look alike come from different tables or passages of the source.
B1: Lab315 (VHH)
VHH: DVQLQASGGGAVQAGGSLRLSCAASGDITRRCMGWFRQAPGKEREGVAGISEDGITIYADSVKGRFTISKDNAKNSLYLQMNSLAPEDTANYSCAASILNRVGCRQLSYEYIYRGQGTQVTVSS
notes: also called Lab315 phage clone; SCR-7724
B2: 2D11-hIgG1 (antibody, V domains shown)
VH: QVQLVESGGGVVQPGRSLRLSCAASGFTFSNHGMHWVRQAPGKCLEWVAGIWSDASNKYYAEAVKGRFTISRDTSKNTLYLQMNSLRAEDTAVYYCARATYTTGWSYFDYWGQGTLVTVSS
VL: SYELTQSPSVSVSPGQTASITCSGDKLGDKYTSWYQQKPGQSPVLVIYHDRKRPSGIPERFSGSNSGNTATLTISGTQAMDEADYYCQAYDRSTAWVFGCGTKLTVLR
notes: Control antibody from WO2019133961A1, expressed as human IgG1 + kappa; also called 21D11; MUC17 control antibody
B3: 4C11-hIgG1 (antibody, V domains shown)
VH: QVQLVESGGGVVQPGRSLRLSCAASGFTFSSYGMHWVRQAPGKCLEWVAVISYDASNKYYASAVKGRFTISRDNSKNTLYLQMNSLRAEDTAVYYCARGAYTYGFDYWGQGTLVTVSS
VL: EIVLTQSPGTLSLSPGERATLSCRASQSVNRYLAWYQQKPGQAPRLLIYGASNRATGIPDRFTGSGSGTDFTLTISRLEPEDFAVYFCHHYGSSIFAFGCGTKVEIKR
notes: also called MUC17 control antibody

Key:
[1] = target: T1, Cyno MUC17 ECD3577-his (His-tagged cynomolgus monkey MUC17 protein extracellular domain fusion protein) (cynomolgus monkey); assay: phage ELISA and FACS screening
T1 construct: also called monkey MUC17-his protein; monkey MUC17 ECD3577-His
T1 chain: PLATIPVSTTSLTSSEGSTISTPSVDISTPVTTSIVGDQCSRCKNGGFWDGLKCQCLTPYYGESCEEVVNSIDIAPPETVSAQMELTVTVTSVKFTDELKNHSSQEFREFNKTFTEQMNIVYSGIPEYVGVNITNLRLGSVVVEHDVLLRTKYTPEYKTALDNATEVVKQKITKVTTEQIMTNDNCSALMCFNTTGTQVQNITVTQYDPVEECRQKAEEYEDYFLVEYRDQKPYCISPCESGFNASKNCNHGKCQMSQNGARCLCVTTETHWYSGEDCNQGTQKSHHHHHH

[2] = target: T1, Cyno MUC17 ECD3577-his (His-tagged …); assay: ELISA on coated monkey MUC17 ECD3577-His, OD450
Procedure: (§1) To assay the binding activity of the humanized antibodies with the monkey MUC17-his protein, the monkey MUC17-his protein was diluted with PBS to a final concentration of […] and subjected to ELISA assay and data analysis according to the method described in Example 3.3. The humanized antibodies SCR-7724, SCR-7782, SCR-7783, SCR-7784, and SCR-7785 have cross-binding activity with the monkey MUC17 protein, maintaining the binding ability of the recombinant antibody.

[3] = target: T2, Human MUC17 ECD4131-his (His-tagged human MUC17 protein extracellular domain fusion protein) (human, UniProt Q685J3 4131-4393); assay: ELISA on coated human MUC17 ECD4131-his, OD450
T2 construct: a truncation of the extracellular domain; also called human MUC17-his protein; human MUC17-His

[4] = target: T3, human MUC17 on NUGC4 endogenous tumor cells (human, UniProt Q685J3 26-4493); assay: FACS on NUGC4 cells, MFI
Procedure: (§2) Then a complete medium was added to stop the digestion, and the cells were blown into a single cell suspension. After counting, the cells were centrifuged, and the cell pellet was resuspended to 2×10⁶ cells/mL in an FACS buffer (PBS+2% fetal bovine serum), and added to a 96-well FACS reaction plate at 100 µL/well. The plate was centrifuged, and the supernatant was discarded. An antibody sample to be tested (diluted in a 3-fold gradient from a starting concentration of 100 nM) was added at 50 µL/well and uniformly mixed with the cells, and the mixture was incubated at 4° C. for 1 h. […] The results were tested and analyzed by FACS (FACS Canto™, purchased from BD) after the plate was centrifuged and washed 3 times with a PBS buffer and resuspended with 100 μL of PBS. Data analysis was performed by software (FlowJo) to obtain the mean fluorescence intensity (MFI) of the cells. Then, analysis was performed by software (GraphPad Prism8), data were fitted, and EC50 values were calculated. As shown in FIGS. 3A-3B, the recombinant antibodies Lab315-huFc, Lab316-huFc, Lab320-huFc, Lab331-huFc, and Lab332-huFc are all capable of binding specifically to NUGC-4 cells.

[5] = target: T3, human MUC17 on NUGC4 endogenous tumor …; assay: FACS on NUGC4 cells, MFI; remark: listed apart in the source
Procedure: as §2

[6] = target: T2, Human MUC17 ECD4131-his (His-tagged …); assay: ELISA on coated human MUC17 ECD4131-his, OD450; remark: listed apart in the source
Procedure: (§3) A human MUC17-his protein was diluted with PBS to a final concentration of […] and then added to a 96-well ELISA plate at 50 µL/well. The plate was incubated at 4° C. overnight. The next day, the plate was washed 2 times with PBST, and a blocking buffer [PBS+2% (w/w) BSA] was added for blocking at room temperature for 2 h. The blocking buffer was discarded, and the recombinant antibody and positive and negative control antibody with a starting concentration of 100 nM serially diluted by 3 folds were added at 50 μL/well. After incubation at 37° C. for 1 h, the plate was washed 3 times with PBST. A horseradish peroxidase (HRP)-labeled secondary antibody (purchased from Merck, Cat. No. AP113P) was added for incubation at 37° C. for 1 h, and the plate was washed 5 times with PBST. A TMB substrate was added at 50 μL/well for incubation at room temperature for 10 min, and then a stop solution (1.0 M HCl) was added at 50 µL/well. The OD₄₅₀ nm values were read by an ELISA plate reader (Multimode Plate Reader, EnSight, purchased from Perkin Elmer).

[7] = target: T4, monkey MUC17 fragment on FlpinCHO-Cyno(3597-3964)-D2 cells (monkey); assay: FACS on FlpinCHO-Cyno(3597-3964)-D2 cells, MFI
T4 chain: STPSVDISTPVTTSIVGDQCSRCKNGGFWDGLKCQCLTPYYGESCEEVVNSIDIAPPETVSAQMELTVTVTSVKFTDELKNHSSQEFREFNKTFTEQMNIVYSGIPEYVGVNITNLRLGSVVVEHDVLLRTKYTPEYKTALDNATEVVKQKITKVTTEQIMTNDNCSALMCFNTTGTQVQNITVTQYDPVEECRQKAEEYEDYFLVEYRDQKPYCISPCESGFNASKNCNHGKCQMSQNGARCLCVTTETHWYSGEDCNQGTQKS

[8] = target: T3, human MUC17 on NUGC4 endogenous tumor …; assay: FACS on NUGC4 cells, MFI; remark: listed apart in the source
Procedure: as §2
(§4) The preparation of the assay cells and the antibodies to be tested and the assay were performed with reference to Example 3.4. […]

[9] = target: T2, Human MUC17 ECD4131-his (His-tagged …); assay: ELISA on coated human MUC17 ECD4131-his, OD450; remark: listed apart in the source
[10] = target: T1, Cyno MUC17 ECD3577-his (His-tagged …); assay: ELISA on coated monkey MUC17 ECD3577-His, OD450
Procedure: as §1

[11] = target: T2, Human MUC17 ECD4131-his (His-tagged …); assay: ELISA on coated human MUC17 ECD4131-his, OD450; remark: listed apart in the source
Procedure: as §3

[12] = target: T1, Cyno MUC17 ECD3577-his (His-tagged …); assay: ELISA on coated monkey MUC17 ECD3577-His, OD450
Procedure: as §1

[13] = target: T3, human MUC17 on NUGC4 endogenous tumor …; assay: FACS on NUGC4 cells, MFI; remark: listed apart in the source
Procedure: as §2, §4

[14] = target: T2, Human MUC17 ECD4131-his (His-tagged …); assay: ELISA on coated human MUC17 ECD4131-his, OD450; remark: listed apart in the source
Procedure: as §3

[15] = target: T2, Human MUC17 ECD4131-his (His-tagged …); assay: ELISA on coated human MUC17 ECD4131-his, OD450; remark: listed apart in the source
Procedure: as §3

[16] = target: T2, Human MUC17 ECD4131-his (His-tagged …); assay: ELISA on coated human MUC17 ECD4131-his, OD450; remark: listed apart in the source
Procedure: as §3

[17] = target: T1, Cyno MUC17 ECD3577-his (His-tagged …); assay: ELISA on coated monkey MUC17 ECD3577-His, OD450
Procedure: as §1

[18] = target: T3, human MUC17 on NUGC4 endogenous tumor …; assay: FACS on NUGC4 cells, MFI; remark: listed apart in the source
Procedure: as §2, §4

[19] = target: T1, Cyno MUC17 ECD3577-his (His-tagged …); assay: ELISA on coated monkey MUC17 ECD3577-His, OD450
Procedure: as §3
(§5) The monkey MUC17-his protein was subjected to ELISA and data analysis according to the method described in Example 3.2. The recombinant antibodies Lab315-huFc, Lab316-huFc, Lab320-huFc, Lab331-huFc, and Lab332-huFc have a relatively good binding activity with the monkey MUC17-his protein.

[20] = target: T2, Human MUC17 ECD4131-his (His-tagged …); assay: SPR (Biacore 8K), antibody captured on Protein A
Procedure: The strength of antibody-antigen binding was assayed with a BIAcore 8K instrument using an Protein A capture method. First, Protein A was immobilized onto a CM4 chip (purchased from GE, BR-1005-34) using an amino coupling method. According to the instruction of the Amine Coupling Kit (purchased from GE, BR100633), NHS and EDC were mixed with HBS-EP+ pH 7.4 as a mobile phase to activate the chip for about 600 s; the Protein A was diluted to 50 µg/mL with 10 mM sodium acetate (pH 4.5) and injected for 600 s, and finally, the remaining activated sites were blocked with ethanolamine. Then, the affinity of the antibody for the antigen was assayed using a multi-cycle kinetic method; in each cycle, first, the antibody to be tested was captured using the Protein A chip, and then a single concentration of antigen protein was injected. The association and dissociation processes of the antibody with the antigen protein were recorded, and finally, the chip was regenerated using Glycine pH 1.5, wherein the mobile phase was HBS-EP+ (10 mM HEPES, 150 mM NaCl, 3 mM EDTA, 0.05% surfactant P20), the flow rate was […], the regeneration time was 30 s, and the assay temperature was 25° C. Finally, according to a 1:1 binding model, the data were analyzed, and the antibody-antigen binding kinetics parameters, including the association rate constant Ka, the dissociation rate constant Kd, the equilibrium dissociation constant KD, and the maximum binding signal Rmax, were fitted. The association rate (Ka), dissociation rate (Kd), and binding affinity (KD) of the recombinant antibodies Lab315-huFc, Lab316-huFc, Lab320-huFc, Lab331-huFc, and Lab332-huFc with the human MUC17 protein are shown in Table 5.

[21] = target: T1, Cyno MUC17 ECD3577-his (His-tagged …); assay: ELISA on coated monkey MUC17 ECD3577-His, OD450
Procedure: as §3, §5

[22] = target: T3, human MUC17 on NUGC4 endogenous tumor …; assay: FACS on NUGC4 cells, MFI; remark: listed apart in the source
Procedure: as §2, §4

| Binder | EC50 (read off the curve) [2] | EC50 (read off the curve) [3] | EC50 (read off the curve) [6] | EC50 (read off the curve) [10] | EC50 (read off the curve) [12] | EC50 (read off the curve) [13] | EC50 (read off the curve) [14] | EC50 (read off the curve) [15] | EC50 (read off the curve) [17] | EC50 (read off the curve) [19] | EC50 (read off the curve) [21] | other results |
| --- | --- | --- | --- | --- | --- | --- | --- | --- | --- | --- | --- | --- |
| B1 | – | – | – | – | – | – | – | – | – | – | – | binding result [1]: binds |
| B2 | ~0.04 nM | ~6 pM | ~0.04 nM | ~0.01 nM | ~0.01 nM | ~0.05 nM | ~6 pM | ~0.02 nM | ~0.05 nM | ~0.01 nM | ~0.03 nM | EC50 (read off the curve) [4]: ~0.1 nM; EC50 (read off the curve) [5]: ~0.07 nM; EC50 (read off the curve) [7]: ~0.4 nM; EC50 (read off the curve) [8]: ~0.1 nM; EC50 (read off the curve) [9]: ~0.02 nM; EC50 (read off the curve) [11]: ~0.03 nM; EC50 (read off the curve) [16]: ~0.02 nM; EC50 (read off the curve) [18]: ~0.1 nM; Kd [20]: 7.12 nM; koff [20]: 0.000753 s⁻¹; kon [20]: 106000 M⁻¹ s⁻¹; EC50 (read off the curve) [22]: ~0.1 nM |
| B3 | ~0.08 nM | ~10 pM | ~0.05 nM | ~0.05 nM | ~0.02 nM | ~4 nM | ~10 pM | ~0.05 nM | ~0.08 nM | ~0.02 nM | ~0.04 nM | – |
